Tested on: β6-bound ERK
Assay: β6 immunoprecipitation and ERK Western blot in transfected SW480 cells
Format: cell-based, human
Settings: SW480 transfectants; mAb R6G9 immunoprecipitates probed with E10; FIG. 27(B)
Description: Construction of the β6 Δ746-764 (SEQ ID NO. 19) deletion mutant in the vector pcDNA1neo and failure of the expressed receptor to localise to focal adhesions in Chinese hamster ovary cells has been reported (Cone et al, 1994).
Equal protein loads of cell lysates prepared from SW480 cells were immunoprecipitated with either anti-β6 monoclonal antibody (mAb R6G9) or matched isotype control antibody.

B1: β6 Δ746-764 deletion mutant: β6 subunit expressed from a deletion construct lacking the coding sequence for … (protein)
chain: WLCLGGAETCEDCLLIGPQCAWCAQENFTHPSGVGERCDTPANLLAKGCQLNFIENPVSQVEILKNKPLSVGRQKNSSDIVQIAPQSLILKLRPGGAQTLQVHVRQTEDYPVDLYYLMDLSASMDDDLNTIKELGSGLSKEMSKLTSNFRLGFGSFVEKPVSPFVKTTPEEIANPCSSIPYFCLPTFGFKHILPLTNDAERFNEIVKNQKISANIDTPEGGFDAIMQAAVCKEKIGWRNDSLHLLVFVSDADSHFGMDSKLAGIVIPNDGLCHLDSKNEYSMSTVLEYPTIGQLIDKLVQNNVLLIFAVTQEQVHLYENYAKLIPGATVGLLQKDSGNILQLIISAYEELRSEVELEVLGDTEGLNLSFTAICNNGTLFQHQKKCSHMKVGDTASFSVTVNIPHCERRSRHIIIKPVGLGDALELLVSPECNCDCQKEVEVNSSKCHHGNGSFQCGVCACHPGHMGPRCECGEDMLSTDSCKEAPDHPSCSGRGDCYCGQCICHLSPYGNIYGPYCQCDNFSCVRHKGLLCGGNGDCDCGECVCRSGWTGEYCNCTTSTDSCVSEDGVLCSGRGDCVCGKCVCTNPGASGPTCERCPTCGDPCNSKRSCIECHLSAAGQAGEECVDKCKLAGATISEEEDFSKDGSVSCSLQGENECLITFLITTDNEGKTIIHSINEKDCPKPPNIPMIMLGVSLATLLIGVVLLCIWKLLVSFHDRKEVAKFSTSTFKNVTYKHREKQKVDLSTDC
Which “reduction of β6-bound ERK relative to wild type receptor” value does the source give for B1 here?
Its value is over 75%.

Reference: patent US8119594B1, “Method of modulating integrin mediated cellular activity and agents useful for same” (Inter-K Pty Limited, priority 1999, dated 2012)
